{
  "source": "the RNAGym collection of RNA variant scans (doi:10.7554/elife.80360)",
  "parents": {"B1": {"name": "Twister Ribozyme (parent)", "chain": "AACACUGCCAAUGCCGGUCCCAAGCCCGGAUAAAAGUGGAGGGGGCGG"}},
  "data": [
    {"variants_of": "B1", "assay": "self-cleavage, relative activity (ratio to wild type); higher = more cleavage; co-transcriptional", "values": [
      {"variant": "AACACUGCCAAUGCCGUUCCCAAGCCCGGAUAAAAGUGUAGGGGGCGG", "note": "[G17U G39U]", "self-cleavage": 0.108},
      {"variant": "AACACUGCCAAUGCCGUUCCCAAGCCCGGAUAAAAGUGCAGGGGGCGG", "note": "[G17U G39C]", "self-cleavage": 0.0939},
      {"variant": "AACACUGCCAAUGCCGGACCCAAGCCCGGAUAAAAGCGGAGGGGGCGG", "note": "[U18A U37C]", "self-cleavage": 0.0568},
      {"variant": "AACACUGCCAAUGCCGGACCCAAGCCCGGAUUAAAGUGGAGGGGGCGG", "note": "[U18A A32U]", "self-cleavage": 0.632},
      {"variant": "AACACUGCCAAUGCCGGACCCAAGCCCGGAUGAAAGUGGAGGGGGCGG", "note": "[U18A A32G]", "self-cleavage": 0.407},
      {"variant": "AACACUGCCAAUGCCGGACCCAAGCCCGGAUCAAAGUGGAGGGGGCGG", "note": "[U18A A32C]", "self-cleavage": 0.53},
      {"variant": "AACACUGCCAAUGCCGUUCCCAAGGCCGGAUAAAAGUGGAGGGGGCGG", "note": "[G17U C25G]", "self-cleavage": 0.0862},
      {"variant": "AACACUGCCAAUGCCGUUCCCAAGACCGGAUAAAAGUGGAGGGGGCGG", "note": "[G17U C25A]", "self-cleavage": 0.0904},
      {"variant": "AACACUGCCAAUGCCGGCCCCAAGCCCGGAUCAAAGUGGAGGGGGCGG", "note": "[U18C A32C]", "self-cleavage": 0.486},
      {"variant": "AACACUGCCAAUGCCGGCCCCAAGCCCGGAUGAAAGUGGAGGGGGCGG", "note": "[U18C A32G]", "self-cleavage": 0.664},
      {"variant": "AACACUGCCAAUGCCGGACCCAAGCCCGGAUAAAAGUGUAGGGGGCGG", "note": "[U18A G39U]", "self-cleavage": 0.144},
      {"variant": "AACACUGCCAAUGCCGGACCCAAGCCCGGAUAAAAGUGCAGGGGGCGG", "note": "[U18A G39C]", "self-cleavage": 0.102},
      {"variant": "AACACUGCCAAUGCCGUCCCCAAGCCCGGAUAAAAGUGGAGGGGGCGG", "note": "[G17U U18C]", "self-cleavage": 0.126},
      {"variant": "AACACUGCCAAUGCCGGACCCAAGCCCGGAUAAAGGUGGAGGGGGCGG", "note": "[U18A A35G]", "self-cleavage": 0.123},
      {"variant": "AACACUGCCAAUGCCGGACCCAAGCCCGGAUAAAUGUGGAGGGGGCGG", "note": "[U18A A35U]", "self-cleavage": 0.624},
      {"variant": "AACACUGCCAAUGCCGGACCCAAGCCCGGAUAAACGUGGAGGGGGCGG", "note": "[U18A A35C]", "self-cleavage": 0.445},
      {"variant": "AACACUGCCAAUGCCGGACCCAAGCCCCGAUAAAAGUGGAGGGGGCGG", "note": "[U18A G28C]", "self-cleavage": 0.185},
      {"variant": "AACACUGCCAAUGCCGGACCCAAGCCCAGAUAAAAGUGGAGGGGGCGG", "note": "[U18A G28A]", "self-cleavage": 0.2},
      {"variant": "AACACUGCCAAUGCCGGACCCAAGCCCUGAUAAAAGUGGAGGGGGCGG", "note": "[U18A G28U]", "self-cleavage": 0.314},
      {"variant": "AACACUGCCAAUGCCGGCCCCAAGCCCGGAUAAAUGUGGAGGGGGCGG", "note": "[U18C A35U]", "self-cleavage": 0.665},
      {"variant": "AACACUGCCAAUGCCGUUCCCAAGCCCGGAUAAAAGUGGAGCGGGCGG", "note": "[G17U G42C]", "self-cleavage": 0.126},
      {"variant": "AACACUGCCAAUGCCGUUCCCAAGCCCGGAUAAAAGUGGAGAGGGCGG", "note": "[G17U G42A]", "self-cleavage": 0.104},
      {"variant": "AACACUGCCAAUGCCGGCCCCGAGCCCGGAUAAAAGUGGAGGGGGCGG", "note": "[U18C A22G]", "self-cleavage": 0.0724},
      {"variant": "AACACUGCCAAUGCCGGACCCAAGCCCGGAUAAAAGUGGAGGGGGCCG", "note": "[U18A G47C]", "self-cleavage": 0.164},
      {"variant": "AACACUGCCAAUGCCGGACCCAAGCCCGGAUAAAAGUGGAGGGGGCAG", "note": "[U18A G47A]", "self-cleavage": 0.201},
      {"variant": "AACACUGCCAAUGCCGUUCCCAAGCCCGGAUAAAUGUGGAGGGGGCGG", "note": "[G17U A35U]", "self-cleavage": 0.372},
      {"variant": "AACACUGCCAAUGCCGGACACAAGCCCGGAUAAAAGUGGAGGGGGCGG", "note": "[U18A C20A]", "self-cleavage": 0.0667},
      {"variant": "AACACUGCCAAUGCCGUUCCCACGCCCGGAUAAAAGUGGAGGGGGCGG", "note": "[G17U A23C]", "self-cleavage": 0.0677},
      {"variant": "AACACUGCCAAUGCCGUUCCCAGGCCCGGAUAAAAGUGGAGGGGGCGG", "note": "[G17U A23G]", "self-cleavage": 0.0937},
      {"variant": "AACACUGCCAAUGCCGUUCCCAUGCCCGGAUAAAAGUGGAGGGGGCGG", "note": "[G17U A23U]", "self-cleavage": 0.159},
      {"variant": "AACACUGCCAAUGCCGUUCCCAAGCCCGGAUAAAAGUGGAGGGAGCGG", "note": "[G17U G44A]", "self-cleavage": 0.219},
      {"variant": "AACACUGCCAAUGCCGUUCCCAAGCCCGGAUAAAAGUGGAGGGUGCGG", "note": "[G17U G44U]", "self-cleavage": 0.374},
      {"variant": "AACACUGCCAAUGCCGGACCCAAGCCCGGAUAAAAGUCGAGGGGGCGG", "note": "[U18A G38C]", "self-cleavage": 0.448},
      {"variant": "AACACUGCCAAUGCCGGACCCAAGCCCGGAUAAAAGUAGAGGGGGCGG", "note": "[U18A G38A]", "self-cleavage": 0.229},
      {"variant": "AACACUGCCAAUGCCGCUCCCAAGCCCGGAUAAAAGGGGAGGGGGCGG", "note": "[G17C U37G]", "self-cleavage": 0.0835},
      {"variant": "AACACUGCCAAUGCCGGACCCAAGCCCGGAUAAAAGUGGAGGAGGCGG", "note": "[U18A G43A]", "self-cleavage": 0.147},
      {"variant": "AACACUGCCAAUGCCGGACCCAAGCCCGUAUAAAAGUGGAGGGGGCGG", "note": "[U18A G29U]", "self-cleavage": 0.389},
      {"variant": "AACACUGCCAAUGCCGGACCCAAGCCCGCAUAAAAGUGGAGGGGGCGG", "note": "[U18A G29C]", "self-cleavage": 0.0874},
      {"variant": "AACACUGCCAAUGCCGUUCCCAAGCCCGGAUGAAAGUGGAGGGGGCGG", "note": "[G17U A32G]", "self-cleavage": 0.345},
      {"variant": "AACACUGCCAAUGCCGUUCCCAAGCCCGGAUUAAAGUGGAGGGGGCGG", "note": "[G17U A32U]", "self-cleavage": 0.294},
      {"variant": "AACACUGCCAAUGCCGUUCCCAAGCCCGGAUCAAAGUGGAGGGGGCGG", "note": "[G17U A32C]", "self-cleavage": 0.263},
      {"variant": "AACACUGCCAAUGCCGUUCCCAAGCCCGGACAAAAGUGGAGGGGGCGG", "note": "[G17U U31C]", "self-cleavage": 0.495},
      {"variant": "AACACUGCCAAUGCCGUUCCCAAGCCAGGAUAAAAGUGGAGGGGGCGG", "note": "[G17U C27A]", "self-cleavage": 0.148},
      {"variant": "AACACUGCCAAUGCCGGAACCAAGCCCGGAUAAAAGUGGAGGGGGCGG", "note": "[U18A C19A]", "self-cleavage": 0.0671},
      {"variant": "AACACUGCCAAUGCCGUUCCCAAGCCCGGAUAAAAGUGGAGGGGCCGG", "note": "[G17U G45C]", "self-cleavage": 0.183},
      {"variant": "AACACUGCCAAUGCCGUUCCCAAGCCCGGAUAAAAGUGGAGGGGUCGG", "note": "[G17U G45U]", "self-cleavage": 0.221},
      {"variant": "AACACUGCCAAUGCCGGACCCAAGCCCGGAUAAAAGUGGAAGGGGCGG", "note": "[U18A G41A]", "self-cleavage": 0.101},
      {"variant": "AACACUGCCAAUGCCGGCCACAAGCCCGGAUAAAAGUGGAGGGGGCGG", "note": "[U18C C20A]", "self-cleavage": 0.0953},
      {"variant": "AACACUGCCAAUGCCGGCCGCAAGCCCGGAUAAAAGUGGAGGGGGCGG", "note": "[U18C C20G]", "self-cleavage": 0.102},
      {"variant": "AACACUGCCAAUGCCGGACCCAAGCCCGGAUAAGAGUGGAGGGGGCGG", "note": "[U18A A34G]", "self-cleavage": 0.171},
      {"variant": "AACACUGCCAAUGCCGGACCCAAGCCCGGAUAAUAGUGGAGGGGGCGG", "note": "[U18A A34U]", "self-cleavage": 0.0942},
      {"variant": "AACACUGCCAAUGCCGGACCGAAGCCCGGAUAAAAGUGGAGGGGGCGG", "note": "[U18A C21G]", "self-cleavage": 0.395},
      {"variant": "AACACUGCCAAUGCCGGACCAAAGCCCGGAUAAAAGUGGAGGGGGCGG", "note": "[U18A C21A]", "self-cleavage": 0.084},
      {"variant": "AACACUGCCAAUGCCGUUCCAAAGCCCGGAUAAAAGUGGAGGGGGCGG", "note": "[G17U C21A]", "self-cleavage": 0.0909}
    ]}
  ]
}
